Measured values from patent US20220169679A1 (THAI UNION GROUP PUBLIC, published 2022).
Several values for one entry are separate records, joined by “and”; a condition that tells them apart may be missing. Identical values can stand only once.

Assays:
Assay in all cases: cell-based or functional assay
[1] = target: angiotensin I-converting enzyme (ACE)
[2] = target: angiotensin I-converting enzyme (ACE); remark: listed apart in the source
[3] = target: angiotensin I-converting enzyme (ACE); remark: listed apart in the source

Binder	ACE inhibition (%) at 1 mg/ml [1] [%]	also measured
WTIHTP [WTIHTP (SEQ ID NO: 17)]	68	
LLDHRANL [LLDHRANL (SEQ ID NO: 22)]	29.2	
GVPGIHGS [… (SEQ ID NO: 31)]	70.6	
NGPSGQTG [NGPSGQTG (SEQ ID NO: 21)]	25.9	
IFERL [IFERL (SEQ ID NO: 19)]	45.3	
HFAASGK [HFAASGK (SEQ ID NO: 24)]	27	
VIY		ACE inhibitory activity (%) at 1 mg/ml [2]: 18.5%
KKLEKKTT [KKLEKKTT (SEQ ID NO: 30)]	21.5	
VQSVPAT [VQSVPAT (SEQ ID NO: 26)]	36.9	
SRINCR [SRINCR (SEQ ID NO: 8)]		ACE inhibitory activity (%) at 1 µg/ml [2]: 27.5%; ACE inhibitory activity (%) at 1 mg/ml [2]: 98.8%
VLMSQVFKQT [VLMSQVFKQT (SEQ ID NO: 16)]	55.1	
LEQVSAGTT [LEQVSAGTT (SEQ ID NO: 25)]	1.9	
VEWKERATE [VEWKERATE (SEQ ID NO: 27)]	15.5	
IKVGGERF [IKVGGERF (SEQ ID NO: 29)]	24.3	
MTGLPGPTGP [MTGLPGPTGP (SEQ ID NO: 33)]	49	
LLHAKPLN [LLHAKPLN (SEQ ID NO: 28)]	79	
APPHIF [APPHIF (SEQ ID NO: 23)]	82	
INCR [INCR (SEQ ID NO: 7)]		ACE inhibitory activity (%) at 1 µg/ml [2]: 29.1%; ACE inhibitory activity (%) at 1 mg/ml [2]: 101%
NLLPHR [NLLPHR (SEQ ID NO: 3)]	94.9	IC50 of ACE inhibitory activity [3]: 0.93 µg/ml and 1.24 µM
VSVVQYSR [VSVVQYSR (SEQ ID NO: 4)]	94.2	IC50 of ACE inhibitory activity [3]: 0.89 µg/ml and 0.95 µM
LIHAIL [LIHAIL (SEQ ID NO: 14)]	33.4	
QGPPGNPG [QGPPGNPG (SEQ ID NO: 32)]	2.91	
VIYSR [VIYSR (SEQ ID NO: 6)]		ACE inhibitory activity (%) at 1 µg/ml [2]: 12.1%; ACE inhibitory activity (%) at 1 mg/ml [2]: 97.8%
LPPGKIV [LPPGKIV (SEQ ID NO: 18)]	71.7	
FDQFLPIH [FDQFLPIH (SEQ ID NO: 20)]	88.4	
GPLYHS [GPLYHS (SEQ ID NO: 13)]	85.8	
SFLMRK [SFLMRK (SEQ ID NO: 15)]	77.7	
VIYSRINCR [VIYSRINCR (SEQ ID NO: 5)]	97	IC50 of ACE inhibitory activity [3]: 0.27 µg/ml and 0.24 µM
